This is an account of results in patent US11702469B2, “Recombinant EGFL7, EGFL7 antibodies, and uses thereof” (Ohio State Innovation Foundation, priority 2017, dated 2023).

In test [1] the test system is NICD. The test can be described thus: NICD immunoblot in primary AML blasts. In kind it is cell-based, human. To be noted: 100 μg/ml, 2 hrs, n=3, vs IgG. How it is done: FIG. 23A-23E. EGFL7 suppresses NOTCH signaling in human AML patient blasts. (FIG. 23A) Primary blasts from AML patients (n=3) were cultured in SFEM medium with 2% BSA in the presence or absence (Unstim) of 0.25 μM rEGFL7 for 4 h. Total proteins were extracted for immunoblotting of NICD (cleaved NOTCH1) with GAPDH as loading control. (FIG. 23B) Total RNA was extracted for quantitative real time (qRT-PCR) analysis of HES1 mRNA with β-ACTIN as internal control. *p<0.05 vs un-stimulated control (Unstim). (FIG. 23C) qRT-PCR for NOTCH2 mRNA at 4 h and 24 h after stimulation of primary AML blasts with 0.25 uM rEGFL7 or unstim controls. (FIG. 23D) Primary blasts from AML patients (n=3) were cultured in SFEM medium in the absence or presence of 100 μg/ml of normal IgG or anti-human EGFL7 antibody for 2 h. Total protein was extracted for immunoblotting of NICD with GAPDH as loading control. […] Total RNA was extracted for quantitative real time RT-PCR analysis of HES1 mRNA with β-ACTIN as internal control. *p<0.05, ***p<0.001 vs IgG.
Cells were lysed in 100 μl of Pierce RIPA buffer (Cat. #8990, Thermo Scientific) supplemented with protease and phosphatase inhibitors (Roche) on ice for 20 min. […] Immunoreactive bands were detected using ECL Select Western Blotting Detection Reagent (GE Healthcare). […]
(In general: A western blot detects proteins with antibodies after separation by electrophoresis.)

The subject of test [2] is THP-1 cells. The test can be described thus: Differentiation (CD11B and CD14 staining), THP-1. To be noted: 96-hours post anti-EGFL7 treatment. The format is cell-based, human. The method, then:
FIG. 24A-24G. EGFL7 prevents activation of NOTCH signaling in AML cells. (FIG. 24A) Overview of experiments using DLL4-FC and IgG-FC control coated plates to induce NOTCH activation. (FIG. 24B) THP-1 cells were pre-treated with 10 μM γ-secretase inhibitor (AVA), 100 μg/ml anti-EGFL7 antibody or 0.25 μM rEGFL7 for 30 min, then transferred to IgG-Fc or DLL4-Fc coated plates. After 4 h of incubation total RNA from THP-1 cells was extracted for qRT-PCR analysis of HES1 with β-ACTIN as internal control. ^###P<0.001 DLL4-FC vs IgG-FC; ***P<0.001 DLL4+AVA, DLL4+rEGFL7, and DLL4+anti-EGFL7 vs DLL4-FC. […] THP-1 cells were treated with the indicated concentration of anti-EGFL7 (@E7) then assessed for apoptosis using (FIG. 24D) AnnexinV+ staining and FACS; *P<0.05 (FIG. 24E) Immuno-blotting for PARP1 and Casp3 cleavage. (FIG. 24F) Cell differentiation was assessed by CD11B and CD14 staining 96-hours post anti-EGFL7 treatments; *P<0.05. (FIG. 24G) To determine whether activation of NOTCH by DLL4-Fc could be accentuated by anti-EGFL7 treatment, THP-1 cells were first treated with anti-EGFL7 (100 μg/ml) and then cultured on DLL4-FC or IgG-Fc coated plates and then assessed for apoptosis using AnnexinV+ staining and FACS. *P<0.05 DLL4-Fc and anti-EGFL7; vs DLL4-FC+anti-EGFL7. […]

B1: Parsatuzumab: Anti-human EGFL7 therapeutic antibody (Parsatuzumab) obtained from Creative Biolabs; blocking monoclonal antibody (antibody, chains of the INN, looked up, V domains shown)
VH: EVQLVESGGGLVQPGGSLRLSCAASGYTFIDYYMNWVRQAPGKGLEWVGDINLDNSGTHYNQKFKGRFTISRDKSKNTAYLQMNSLRAEDTAVYYCAREGVYHDYDDYAMDYWGQGTLVTVSS
VL: DIQMTQSPSSLSASVGDRVTITCRTSQSLVHINAITYLHWYQQKPGKAPKLLIYRVSNRFSGVPSRFSGSGSGTDFTLTISSLQPEDFATYYCGQSTHVPLTFGQGTKVEIK
With B1, the NICD levels entry in test [1] is listed as “significant increases in NICD levels”. In test [2], the “CD11B and CD14 expression” value was “increases were found in both these markers”.
